The values that follow are results of earlier work, collected in US20200069786A1, “COMPOSITION AND PROCESS FOR PREPARING VACCINE” (TREOS BIO ZRT., priority 2018, published 2020).

This series relates to TSA.
The mark [1] stands for this setting: TSA expression rate in PROSTATE cancer.
Where [2] appears, read: TSA expression rate in LUNG cancer.
Setting [3] is: TSA expression rate in Cervical cancer.
The mark [4] stands for this setting: TSA expression rate in Esophageal.
Where [5] appears, read: TSA expression rate in GASTRIC cancer.
The mark [6] stands for this setting: TSA expression rate in MELANOMA

Read-outs that look alike come from different tables or passages of the source.

B1: PBK (protein, UniProt Q96KB5 1-322, looked up)
Lymphokine-activated killer …: MEGISNFKTPSKLSEKKKSVLCSTPTINIPASPFMQKLGFGTGVNVYLMKRSPRGLSHSPWAVKKINPICNDHYRSVYQKRLMDEAKILKSLHHPNIVGYRAFTEANDGSLCLAMEYGGEKSLNDLIEERYKASQDPFPAAIILKVALNMARGLKYLHQEKKLLHGDIKSSNVVIKGDFETIKICDVGVSLPLDENMTVTDPEACYIGTEPWKPKEAVEENGVITDKADIFAFGLTLWEMMTLSIPHINLSNDDDDEDKTFDESDFDDEAYYAALGTRPPINMEELDESYQKVIELFSVCTNEDPKDRPSAAHIVEALETDV
For the molecule B1, the “TSA Expression Rate (ER)” value (BRAIN) is listed as 100% and the “TSA Expression Rate (ER)” value (HCC) was 64%. Also, the “Expression Rate (ER) %” value (TSA expression rate in BLADDER cancer) is reported as 43%.

B2: ODF4 (protein, UniProt Q2M2E3 1-257, looked up)
Outer dense fiber protein 4: MDAEYSGNEFPRSEGERDQHQRPGKERKSGEAGWGTGELGQDGRLLSSTLSLSSNRSLGQRQNSPLPFQWRITHSFRWMAQVLASELSLVAFILLLVVAFSKKWLDLSRSLFYQRWPVDVSNRIHTSAHVMSMGLLHFYKSRSCSDLENGKVTFIFSTLMLFPINIWIFELERNVSIPIGWSYFIGWLVLILYFTCAILCYFNHKSFWSLILSHPSGAVSCSSSFGSVEESPRAQTITDTPITQEGVLDPEQKDTHV
With B2, the “TSA Expression Rate (ER)” value (BREAST) was 63%. For the same molecule, under setting [1], the “Expression Rate (ER) %” value is listed as 0%.

B3: IL13RA2 (protein, UniProt Q14627 27-380, looked up)
Interleukin-13 receptor …: DTEIKVNPPQDFEIVDPGYLGYLYLQWQPPLSLDHFKECTVEYELKYRNIGSETWKTIITKNLHYKDGFDLNKGIEAKIHTLLPWQCTNGSEVQSSWAETTYWISPQGIPETKVQDMDCVYYNWQYLLCSWKPGIGVLLDTNYNLFYWYEGLDHALQCVDYIKADGQNIGCRFPYLEASDYKDFYICVNGSSENKPIRSSYFTFQLQNIVKPLPPVYLTFTRESSCEIKLKWSIPLGPIPARCFDYEIEIREDDTTLVTATVENETYTLKTTNETRQLCFVVRSKVNIYCSDDGIWSEWSDKQCWEGEDLSKKTLLRFWLPFGFILILVIFVTGLLLRKPNTYPKMIPEFFCDT
On to B3, for which the “TSA Expression Rate (ER)” value (BRAIN) is on record as 95%. Also, the “Expression Rate (ER) %” value is 12% under setting [2] and 58% (TSA expression rate in PEDIATRIC).

B4: PIWIL1 (protein, UniProt Q96J94 1-861, looked up)
Piwi-like protein 1: MTGRARARARGRARGQETAQLVGSTASQQPGYIQPRPQPPPAEGELFGRGRQRGTAGGTAKSQGLQISAGFQELSLAERGGRRRDFHDLGVNTRQNLDHVKESKTGSSGIIVRLSTNHFRLTSRPQWALYQYHIDYNPLMEARRLRSALLFQHEDLIGKCHAFDGTILFLPKRLQQKVTEVFSKTRNGEDVRITITLTNELPPTSPTCLQFYNIIFRRLLKIMNLQQIGRNYYNPNDPIDIPSHRLVIWPGFTTSILQYENSIMLCTDVSHKVLRSETVLDFMFNFYHQTEEHKFQEQVSKELIGLVVLTKYNNKTYRVDDIDWDQNPKSTFKKADGSEVSFLEYYRKQYNQEITDLKQPVLVSQPKRRRGPGGTLPGPAMLIPELCYLTGLTDKMRNDFNVMKDLAVHTRLTPEQRQREVGRLIDYIHKNDNVQRELRDWGLSFDSNLLSFSGRILQTEKIHQGGKTFDYNPQFADWSKETRGAPLISVKPLDNWLLIYTRRNYEAANSLIQNLFKVTPAMGMQMRKAIMIEVDDRTEAYLRVLQQKVTADTQIVVCLLSSNRKDKYDAIKKYLCTDCPTPSQCVVARTLGKQQTVMAIATKIALQMNCKMGGELWRVDIPLKLVMIVGIDCYHDMTAGRRSIAGFVASINEGMTRWFSRCIFQDRGQELVDGLKVCLQAALRAWNSCNEYMPSRIIVYRDGVGDGQLKTLVNYEVPQFLDCLKSIGRGYNPRLTVIVVKKRVNTRFFAQSGGRLQNPLPGTVIDVEVTRPEWYDFFIVSQAVRSGSVSPTHYNVIYDNSGLKPDHIQRLTYKLCHIYYNWPGVIRVPAPCQYAHKLAFLVGQSIHREPNLSLSNRLYYL
In the case of B4, the “TSA Expression Rate (ER)” value reads like this: (BRAIN) 76%; (BREAST) 100%; (HCC) 40%; (OVARIAN) 68%; (PANCREATIC) 71%. Besides, the “Expression Rate (ER) %” value was 48% (TSA expression rate in CRC); 83% under setting [3]; 70% under setting [4]; 76% under setting [5]; 52% (TSA expression rate in Kidney); 15% under setting [2]. Further, the “Expression Rate (ER) %” value under setting [1] is listed as 4%.

B5: CEA (protein, UniProt P06731 35-685, looked up)
Cell adhesion molecule CEACAM5: KLTIESTPFNVAEGKEVLLLVHNLPQHLFGYSWYKGERVDGNRQIIGYVIGTQQATPGPAYSGREIIYPNASLLIQNIIQNDTGFYTLHVIKSDLVNEEATGQFRVYPELPKPSISSNNSKPVEDKDAVAFTCEPETQDATYLWWVNNQSLPVSPRLQLSNGNRTLTLFNVTRNDTASYKCETQNPVSARRSDSVILNVLYGPDAPTISPLNTSYRSGENLNLSCHAASNPPAQYSWFVNGTFQQSTQELFIPNITVNNSGSYTCQAHNSDTGLNRTTVTTITVYAEPPKPFITSNNSNPVEDEDAVALTCEPEIQNTTYLWWVNNQSLPVSPRLQLSNDNRTLTLLSVTRNDVGPYECGIQNELSVDHSDPVILNVLYGPDDPTISPSYTYYRPGVNLSLSCHAASNPPAQYSWLIDGNIQQHTQELFISNITEKNSGLYTCQANNSASGHSRTTVKTITVSAELPKPSISSNNSKPVEDKDAVAFTCEPEAQNTTYLWWVNGQSLPVSPRLQLSNGNRTLTLFNVTRNDARAYVCGIQNSVSANRSDPVTLDVLYGPDTPIISPPDSSYLSGANLNLSCHSASNPSPQYSWRINGIPQQHTQVLFIAKITPNNNGTYACFVSNLATGRNNSIVKSITVSASGTSPGLSA
B5: for the setting “PANCREATIC”, the “TSA Expression Rate (ER)” value is given as 60%.

B6: ZNF165 (protein, UniProt P49910 1-485, looked up)
Zinc finger protein 165: MATEPKKAAAQNSPEDEGLLIVKIEEEEFIHGQDTCLQRSELLKQELCRQLFRQFCYQDSPGPREALSRLRELCCQWLKPEIHTKEQILELLVLEQFLTILPGDLQAWVHEHYPESGEEAVTILEDLERGTDEAVLQVQAHEHGQEIFQKKVSPPGPALNVKLQPVETKAHFDSSEPQLLWDCDNESENSRSMPKLEIFEKIESQRIISGRISGYISEASGESQDICKSAGRVKRQWEKESGESQRLSSAQDEGFGKILTHKNTVRGEIISHDGCERRLNLNSNEFTHQKSCKHGTCDQSFKWNSDFINHQIIYAGEKNHQYGKSFKSPKLAKHAAVFSGDKTHQCNECGKAFRHSSKLARHQRIHTGERCYECNECGKSFAESSDLTRHRRIHTGERPFGCKECGRAFNLNSHLIRHQRIHTREKPYECSECGKTFRVSSHLIRHFRIHTGEKPYECSECGRAFSQSSNLSQHQRIHMRENLLM
As for B6, the “TSA Expression Rate (ER)” value is, setting by setting: (BRAIN) 100%; (HCC) 52%; (LUNG) 21%. The “Expression Rate (ER) %” value runs as follows: (TSA expression rate in CRC) 43%; under setting [5], 9%; (TSA expression rate in LEUKEMIAS) 52%.

B7: TYR (protein, UniProt P14679 19-529, looked up)
Tyrosinase: HFPRACVSSKNLMEKECCPPWSGDRSPCGQLSGRGSCQNILLSNAPLGPQFPFTGVDDRESWPSVFYNRTCQCSGNFMGFNCGNCKFGFWGPNCTERRLLVRRNIFDLSAPEKDKFFAYLTLAKHTISSDYVIPIGTYGQMKNGSTPMFNDINIYDLFVWMHYYVSMDALLGGSEIWRDIDFAHEAPAFLPWHRLFLLRWEQEIQKLTGDENFTIPYWDWRDAEKCDICTDEYMGGQHPTNPNLLSPASFFSSWQIVCSRLEEYNSHQSLCNGTPEGPLRRNPGNHDKSRTPRLPSSADVEFCLSLTQYESGSMDKAANFSFRNTLEGFASPLTGIADASQSSMHNALHIYMNGTMSQVQGSANDPIFLLHHAFVDSIFEQWLRRHRPLQEVYPEANAPIGHNRESYMVPFIPLYRNGDFFISSKDLGYDYSYLQDSDPDSFQDYIKSYLEQASRIWSWLLGAAMVGAVLTALLAGLVSLLCRHKRKQLPEEKQPLLMEKEDYHSLYQSHL
Take B7: the “TSA Expression Rate (ER)” value was 91% (BRAIN) and 0% (THYROID). Also, the “Expression Rate (ER) %” value under setting [6] is listed as 87%.

B8: GAGE-2 (protein, UniProt Q6NT46 1-116, looked up)
G antigen 2A: MSWRGRSTYRPRPRRYVEPPEMIGPMRPEQFSDEVEPATPEEGEPATQRQDPAAAQEGQDEGASAGQGPKPEAHSQEQGHPQTGCECEDGPDGQEMDPPNPEEVKTPEEGEKQSQC
Regarding B8, under “PANCREATIC”, the “TSA Expression Rate (ER)” value was 17%.

B9: KIF20A (protein, UniProt O95235 2-890, looked up)
Kinesin-like protein KIF20A: SQGILSPPAGLLSDDDVVVSPMFESTAADLGSVVRKNLLSDCSVVSTSLEDKQQVPSEDSMEKVKVYLRVRPLLPSELERQEDQGCVRIENVETLVLQAPKDSFALKSNERGIGQATHRFTFSQIFGPEVGQASFFNLTVKEMVKDVLKGQNWLIYTYGVTNSGKTHTIQGTIKDGGILPRSLALIFNSLQGQLHPTPDLKPLLSNEVIWLDSKQIRQEEMKKLSLLNGGLQEEELSTSLKRSVYIESRIGTSTSFDSGIAGLSSISQCTSSSQLDETSHRWAQPDTAPLPVPANIRFSIWISFFEIYNELLYDLLEPPSQQRKRQTLRLCEDQNGNPYVKDLNWIHVQDAEEAWKLLKVGRKNQSFASTHLNQNSSRSHSIFSIRILHLQGEGDIVPKISELSLCDLAGSERCKDQKSGERLKEAGNINTSLHTLGRCIAALRQNQQNRSKQNLVPFRDSKLTRVFQGFFTGRGRSCMIVNVNPCASTYDETLHVAKFSAIASQLVHAPPMQLGFPSLHSFIKEHSLQVSPSLEKGAKADTGLDDDIENEADISMYGKEELLQVVEAMKTLLLKERQEKLQLEMHLRDEICNEMVEQMQQREQWCSEHLDTQKELLEEMYEEKLNILKESLTSFYQEEIQERDEKIEELEALLQEARQQSVAHQQSGSELALRRSQRLAASASTQQLQEVKAKLQQCKAELNSTTEELHKYQKMLEPPPSAKPFTIDVDKKLEEGQKNIRLLRTELQKLGESLQSAERACCHSTGAGKLRQALTTCDDILIKQDQTLAELQNNMVLVKLDLRKKAACIAEQYHTVLKLQGQVSAKKRLGTNQENQQPNQQPPGKKPFLRNLLPRTPTCQSSTDCSPYARILRSRRSPLLKSGPFGKKY
B9: the “TSA Expression Rate (ER)” value (BRAIN) is 58%, the “TSA Expression Rate (ER)” value (LUNG) was 95%, the “TSA Expression Rate (ER)” value (OVARIAN) is recorded as 65% and the “TSA Expression Rate (ER)” value (PANCREATIC) was 63%. The “Expression Rate (ER) %” value by setting is: under setting [3], 35%; under setting [4], 15%; under setting [6], 64%.
